Measured values reported in the supplement of paper PMC11246515.
± gives the standard deviation of the averaged measurements.

Experiment: total protein half-life in vivo (active degradation + dilution); higher = more stable protein
[1] = E. coli NCM3722 delta-clpP delta-lon delta-hslV, growth: N-lim chemostat, doubling time 6 h
[2] = wild type E. coli NCM3722, growth: C-lim chemostat, doubling time 3 h
[3] = wild type E. coli NCM3722, growth: C-lim chemostat, doubling time 6 h
[4] = wild type E. coli NCM3722, growth: C-lim chemostat, doubling time 12 h
[5] = E. coli NCM3722 delta-clpP, growth: N-lim chemostat, doubling time 6 h
[6] = E. coli NCM3722 delta-hslV, growth: N-lim chemostat, doubling time 6 h
[7] = E. coli NCM3722 delta-lon, growth: N-lim chemostat, doubling time 6 h
[8] = E. coli NCM3722 delta-smpB, growth: N-lim chemostat, doubling time 6 h
[9] = wild type E. coli NCM3722, growth: N-lim chemostat, doubling time 6 h
[10] = wild type E. coli NCM3722, growth: N-lim chemostat, doubling time 12 h
[11] = wild type E. coli NCM3722, growth: P-lim chemostat, doubling time 6 h
[12] = wild type E. coli NCM3722, growth: P-lim chemostat, doubling time 12 h

Sequence | total protein half-life in vivo [1] | total protein half-life in vivo [2] | total protein half-life in vivo [3] | total protein half-life in vivo [4] | total protein half-life in vivo [5] | total protein half-life in vivo [6] | total protein half-life in vivo [7] | total protein half-life in vivo [8] | total protein half-life in vivo [9] | total protein half-life in vivo [10] | total protein half-life in vivo [11] | total protein half-life in vivo [12]
MNAYELQALRHIFAMTIDECATWIAQTGDSESWRQWENGKCAIPDRVVEQLLAMRQQRKKHLHAIIEKINNRIGNNTMRFFPDLTAFQRVYPDGNFIDWKIYQSVAAELYAHDLERLC | 4.85 h | 2.05 h | 3.14 ± 0.49 h | 5.24 ± 0.46 h |  |  |  |  |  |  |  | 
MNDAIPRPQAKTRKALTPLLEIRNLTKSYDGQHAVDDVSLTIYKGEIFALLGASGCGKSTLLRMLAGFEQPSAGQIMLDGVDLSQVPPYLRPINMMFQSYALFPHMTVEQNIAFGLKQDKLPKAEIASRVNEMLGLVHMQEFAKRKPHQLSGGQRQRVALARSLAKRPKLLLLDEPMGALDKKLRDRMQLEVVDILERVGVTCVMVTHDQEEAMTMAGRIAIMNRGKFVQIGEPEEIYEHPTTRYSAEFIGSVNVFEGVLKERQEDGLVLDSPGLVHPLKVDADASVVDNVPVHVALRPEKIMLCEEPPANGCNFAVGEVIHIAYLGDLSVYHVRLKSGQMISAQLQNAHRHRKGLPTWGDEVRLCWEVDSCVVLTV | 6.49 ± 0.28 h | 2.93 ± 0.054 h | 5.92 ± 0.21 h | 11.2 ± 0.37 h | 6.64 ± 0.65 h | 5.74 ± 0.33 h | 6.22 ± 0.67 h | 5.84 ± 0.35 h | 5.64 ± 0.26 h | 11.5 ± 0.22 h | 6.222 ± 0.037 h | 11.8 ± 1.3 h
MNDEMKGKSGKVKVMYVRSDDDSDKRTHNPRTGKGGGRPGKSRADGGRRPARDDKQSQPRDRKWEDSPWRTVSRAPGDETPEKADHGGISGKSFIDPEVLRRQRAEETRVYGENACQALFQSRPEAIVRAWFIQSVTPRFKEALRWMAANRKAYHVVDEAELTKASGTEHHGGVCFLIKKRNGTTVQQWVSQAGAQDCVLALENESNPHNLGGMMRSCAHFGVKGVVVQDAALLESGAAIRTAEGGAEHVQPITGDNIVNVLDDFRQAGYTVVTTSSEQGKPLFKTSLPAKMVLVLGQEYEGLPDAARDPNDLRVKIDGTGNVAGLNISVATGVLLGEWWRQNKA [P0AGJ5] |  | 2.91 ± 0.33 h | 5.57 ± 0.52 h | 10.3 ± 0.99 h | 5.71 ± 0.11 h | 4.87 ± 0.12 h | 5.2 ± 0.25 h | 4.77 ± 0.058 h | 5.53 ± 0.15 h | 10.7 ± 1.5 h | 5.4 ± 0.26 h | 10.9 ± 0.76 h
MNDIAHNLAQVRDKISAAATRCGRSPEEITLLAVSKTKPASAIAEAIDAGQRQFGENYVQEGVDKIRHFQELGVTGLEWHFIGPLQSNKSRLVAEHFDWCHTIDRLRIATRLNDQRPAELPPLNVLIQINISDENSKSGIQLAELDELAAAVAELPRLRLRGLMAIPAPESEYVRQFEVARQMAVAFAGLKTRYPHIDTLSLGMSDDMEAAIAAGSTMVRIGTAIFGARDYSKK | 4.54 ± 0.38 h | 3.39 ± 0.11 h | 5.71 ± 0.17 h | 8.8 ± 1 h | 5.38 ± 2.8 h | 4.27 ± 0.37 h | 5.68 ± 1.1 h | 4.24 ± 0.45 h | 4.33 ± 0.43 h | 7.53 ± 0.85 h | 5.95 ± 0.28 h | 11.1 ± 0.35 h
MNDRDFMRYSRQILLDDIALDGQQKLLDSQVLIIGLGGLGTPAALYLAGAGVGTLVLADDDDVHLSNLQRQILFTTEDIDRPKSQVSQQRLTQLNPDIQLTALQQRLTGEALKDAVARADVVLDCTDNMATRQEINAACVALNTPLITASAVGFGGQLMVLTPPWEQGCYRCLWPDNQEPERNCRTAGVVGPVVGVMGTLQALEAIKLLSGIETPAGELRLFDGKSSQWRSLALRRASGCPVCGGSNADPV | 4.92 ± 0.58 h | 2.37 ± 0.41 h | 4.03 ± 0.18 h | 8.83 ± 2.4 h | 3.65 ± 0.013 h | 3.8 ± 0.15 h | 5.12 ± 0.89 h | 2.97 ± 0.83 h | 3.24 ± 0.079 h | 8.28 ± 6.9 h | 4.26 ± 0.46 h | 7.08 ± 0.84 h
MNDSEFHRLADQLWLTIEERLDDWDGDSDIDCEINGGVLTITFENGSKIIINRQEPLHQVWLATKQGGYHFDLKGDEWICDRSGETFWDLLEQAATQQAGETVSFR | 5.94 ± 0.86 h | 2.95 ± 0.78 h | 5.61 ± 1.6 h | 9.5 h | 6.07 h | 5.73 ± 0.14 h | 5.77 ± 0.51 h | 4.57 ± 1.3 h | 5.34 ± 0.45 h | 9.68 ± 0.16 h | 5.67 ± 0.12 h | 11 ± 0.23 h
MNDTYQPINCDDYDNLELACQHHLMLTLELKDGEKLQAKASDLVSRKNVEYLVVEAAGETRELRLDKITSFSHPEIGTVVVSES [P0AFW8] |  |  | 1.91 h | 3.49 ± 0.41 h | 4.86 ± 0.14 h | 1.83 h | 2.15 ± 0.34 h | 1.79 ± 0.12 h | 2.05 ± 0.44 h | 3.37 h | 3.17 ± 1.2 h | 5.3 ± 1.6 h
MNEAVSPGALSTLFTDARTHNGWRETPVSDETLREIYALMKWGPTSANCSPARIVFTRTAEGKERLRPALSSGNLQKTLTAPVTAIVAWDSEFYERLPLLFPHGDARSWFTSSPQLAEETAFRNSSMQAAYLIVACRALGLDTGPMSGFDRQHVDDAFFTGSTLKSNLLINIGYGDSSKLYARLPRLSFEEACGLL |  |  |  |  | 1.43 h | 0.257 ± 0.15 h | 0.612 ± 0.095 h | 0.402 h | 0.94 ± 0.6 h |  |  | 
